The results in this text go back to US20200255501A1 (VIB VZW, published 2020).

In test [1] the target is T1, B. anthracis Sap S-Layer assembly domain (Sap^AD; residues 216-814), C-terminal His6 (Bacillus anthracis, UniProt P49051 216-814). The test is described as follows: isothermal titration calorimetry, […].
In test [2] the target is T1, B. anthracis Sap S-Layer assembly …. The test is described as follows: ITC, Nb titrated into fresh monomeric Sapc, 30 °C. On the technique in general: ITC needs no label: the signal is the heat of the interaction.

Positions count from the first letter of the chain named.

B1: anti-Sap Nanobody704 (VHH)
VHH: QVQLVESGGGLVQPGGSLRLSCAASGFTFSNFAIAWVRQAPGKGLEWVSDINSGGTDTSYAAAVKGRFTISRDNAKNTLYLQMNNLKPEDTAVYYCAKSAQSYFHSTFDHRGQGTQVTVSS
On to B1, for which the dissociation constant (Kd) in test [1] is 183 nM.

B2: anti-Sap Nanobody707 (VHH)
VHH: QVQLVESGGGLVQAGGSLRLSCAASGSIFRINAMGWYRQASGKQRELVAAITSGGNTNYADSVKGRFTISRDNAKNTVYLQMNSLKPEDTAVYYCNADFGTGGRPYDYWGQGTQVTVSS
Turning to B2, the dissociation constant Kd in test [1] worked out at 103 nM.

B3: anti-Sap Nanobody683 (VHH)
VHH: B2 VHH with A33D, S41P, N56S, N76K, T77M, N96H, G100S, G103W, R104A
On to B3, for which the equilibrium dissociation constant (Kd) in test [2] was found to be 35 nM; in test [1], 35.8 nM.

B4: anti-Sap Nanobody702 (VHH)
VHH: QVQLVESGGGLVQAGGSLRLSCAASGSIFRVNDMGWYRQAPGKQRELVAIIITGGSTNYADSVKGRFTISRDNAKNTVYLQMNSLRPEDTAVYYCNADFGTGPGRYDYWGQGTQVTVSS
On to B4, for which the Kd in test [1] came out at 72.5 nM.

B5: anti-Sap Nanobody688 (VHH)
VHH: QVQLVESGGGLVRAGGSLRLSCAASGSIFRINDMGWYRQAPGKQRELVAAITSGGSTNYADSVKGRFTISRDNAKNTVYLQMNSLKPEDTAVYYCNADFSTVRERRYDYWGQGTQVTVSS
In test [2], B5 yielded a dissociation constant Kd of 120 nM.

The Kd is a measure of binding affinity in units of concentration.
